Assay results from publication PMC9352680, “A comprehensive thermodynamic model for RNA binding by the Saccharomyces cerevisiae Pumilio protein PUF4”.
Positions count from the first letter of the chain named. Names may count otherwise.

B1: Ic_S2_P3E.1_K3.1_C3.1_H3.1_A3.1_[T5G]_[A6T]_F3.1_[T7C]_[A8T]_T3.1 (ssRNA)
RNA: UUUGAUUAAUAUGAUAUCGUUCUUUCUUGUAGUCUUUCUUUCUCGAUAUCAUAUUAAUCUUU
B2: Ic_S2_P3E.1_K3.1_C3.1_H3.1_A3.1_[T5G]_[A6T]_F3.1_[A8C]_T3.1 (ssRNA)
RNA: B1 RNA with C34U, U35C
B3: Ic_S2_P3E.1_K3.1_C3.1_H3.1_A3.1_[T5C]_F3.1_[T7G]_[A8T]_T3.1 (ssRNA)
RNA: B1 RNA with G32C, U33A, C34G
B4: Ic_S2_P3E.1_K3.1_C3.1_H3.1_A3.1_[T5A]_[A6C]_F3.1_[T7A]_[A8T]_T3.1 (ssRNA)
RNA: B1 RNA with G32A, U33C, C34A
B5: Ic_S2_P3E.1_K3.1_C3.1_H3.1_A3.1_[T5C]_[A6T]_F3.1_[T7A]_[A8T]_T3.1 (ssRNA)
RNA: B1 RNA with G32C, C34A
B6: Ic_S2_P3E.1_K3.1_C3.1_H3.1_A3.1_[T5A]_[A6C]_F3.1_[T7C]_[A8T]_T3.1 (ssRNA)
RNA: B1 RNA with G32A, U33C
B7: Ic_S2_P3E.1_K3.1_C3.1_H3.1_A3.1_[T5C]_[A6T]_F3.1_[A8G]_T3.1 (ssRNA)
RNA: B1 RNA with G32C, C34U, U35G
B8: Ic_S2_P3E.1_K3.1_C3.1_H3.1_A3.1_[T5C]_F3.1_[T7A]_[A8C]_T3.1 (ssRNA)
RNA: B1 RNA with G32C, U33A, C34A, U35C
B9: Ic_S2_P3E.1_K3.1_C3.1_H3.1_A3.1_[T5G]_[A6T]_F3.1_[T7A]_[A8T]_T3.1 (ssRNA)
RNA: B1 RNA with C34A
B10: Ic_S2_P3E.1_K3.1_C3.1_H3.1_A3.1_[T5A]_[A6T]_F3.1_[T7A]_[A8T]_T3.1 (ssRNA)
RNA: B1 RNA with G32A, C34A
B11: Ic_S2_P3E.1_K3.1_C3.1_H3.1_A3.1_[T5C]_F3.1_[T7A]_[A8G]_T3.1 (ssRNA)
RNA: B1 RNA with G32C, U33A, C34A, U35G
B12: Ic_S2_P3E.1_K3.1_C3.1_H3.1_A3.1_[T5G]_[A6T]_F3.1_[T7A]_T3.1 (ssRNA)
RNA: B1 RNA with C34A, U35A
B13: Ic_S2_P3E.1_K3.1_C3.1_H3.1_A3.1_[T5C]_[A6G]_F3.1_[T7C]_[A8C]_T3.1 (ssRNA)
RNA: B1 RNA with G32C, U33G, U35C
B14: Ic_S2_P3E.1_K3.1_C3.1_H3.1_A3.1_[T5C]_[A6G]_F3.1_[T7G]_[A8C]_T3.1 (ssRNA)
RNA: B1 RNA with G32C, U33G, C34G, U35C
B15: Ic_S2_P3E.1_K3.1_C3.1_H3.1_A3.1_[T5C]_F3.1_[T7C]_[A8G]_T3.1 (ssRNA)
RNA: B1 RNA with G32C, U33A, U35G
B16: Ic_S2_P3E.1_K3.1_C3.1_H3.1_A3.1_[T5C]_[A6T]_F3.1_[T7A]_T3.1 (ssRNA)
RNA: B1 RNA with G32C, C34A, U35A
B17: Ic_S2_P3E.1_K3.1_C3.1_H3.1_A3.1_[T5A]_[A6C]_F3.1_[T7C]_[A8G]_T3.1 (ssRNA)
RNA: B1 RNA with G32A, U33C, U35G
B18: Ic_S2_P3E.1_K3.1_C3.1_H3.1_A3.1_[T5A]_[A6T]_F3.1_[T7A]_[A8C]_T3.1 (ssRNA)
RNA: B1 RNA with G32A, C34A, U35C
B19: Ic_S2_P3E.1_K3.1_C3.1_H3.1_A3.1_[T5C]_F3.1_[T7C]_[A8T]_T3.1 (ssRNA)
RNA: B1 RNA with G32C, U33A
B20: Ic_S2_P3E.1_K3.1_C3.1_H3.1_A3.1_[T5G]_[A6T]_F3.1_[T7C]_T3.1 (ssRNA)
RNA: B1 RNA with U35A
B21: Ic_S2_P3E.1_K3.1_C3.1_H3.1_A3.1_[T5C]_[A6T]_F3.1_[T7G]_[A8G]_T3.1 (ssRNA)
RNA: B1 RNA with G32C, C34G, U35G
B22: Ic_S2_P3E.1_K3.1_C3.1_H3.1_A3.1_[T5A]_[A6T]_F3.1_[T7C]_[A8T]_T3.1 (ssRNA)
RNA: B1 RNA with G32A
B23: Ic_S2_P3E.1_K3.1_C3.1_H3.1_A3.1_[T5A]_[A6T]_F3.1_[T7G]_[A8T]_T3.1 (ssRNA)
RNA: B1 RNA with G32A, C34G
B24: Ic_S2_P3E.1_K3.1_C3.1_H3.1_A3.1_[T5C]_[A6C]_F3.1_[A8T]_T3.1 (ssRNA)
RNA: B1 RNA with G32C, U33C, C34U
B25: Ic_S2_P3E.1_K3.1_C3.1_H3.1_A3.1_[T5C]_[A6T]_F3.1_[A8T]_T3.1 (ssRNA)
RNA: B1 RNA with G32C, C34U
B26: Ic_S2_P3E.1_K3.1_C3.1_H3.1_A3.1_[T5A]_[A6T]_F3.1_[T7A]_[A8G]_T3.1 (ssRNA)
RNA: B1 RNA with G32A, C34A, U35G
B27: Ic_S2_P3E.1_K3.1_C3.1_H3.1_A3.1_[T5C]_[A6C]_F3.1_[A8G]_T3.1 (ssRNA)
RNA: B1 RNA with G32C, U33C, C34U, U35G
B28: Ic_S2_P3E.1_K3.1_C3.1_H3.1_A3.1_[T5A]_[A6T]_F3.1_[A8C]_T3.1 (ssRNA)
RNA: B1 RNA with G32A, C34U, U35C
B29: Ic_S2_P3E.1_K3.1_C3.1_H3.1_A3.1_[T5C]_[A6C]_F3.1_[T7A]_T3.1 (ssRNA)
RNA: B1 RNA with G32C, U33C, C34A, U35A
B30: Ic_S2_P3E.1_K3.1_C3.1_H3.1_A3.1_[T5C]_[A6G]_F3.1_[A8T]_T3.1 (ssRNA)
RNA: B1 RNA with G32C, U33G, C34U
B31: Ic_S2_P3E.1_K3.1_C3.1_H3.1_A3.1_[T5C]_[A6T]_F3.1_[T7G]_[A8C]_T3.1 (ssRNA)
RNA: B1 RNA with G32C, C34G, U35C
B32: Ic_S2_P3E.1_K3.1_C3.1_H3.1_A3.1_[T5C]_[A6C]_F3.1_[T7A]_[A8C]_T3.1 (ssRNA)
RNA: B1 RNA with G32C, U33C, C34A, U35C
B33: Ic_S2_P3E.1_K3.1_C3.1_H3.1_A3.1_[T5C]_[A6T]_F3.1_[T7C]_[A8C]_T3.1 (ssRNA)
RNA: B1 RNA with G32C, U35C
B34: Ic_S2_P3E.1_K3.1_C3.1_H3.1_A3.1_[T5A]_[A6T]_F3.1_[A8T]_T3.1 (ssRNA)
RNA: B1 RNA with G32A, C34U
B35: Ic_S2_P3E.1_K3.1_C3.1_H3.1_A3.1_[T5C]_[A6C]_F3.1_[T7C]_[A8T]_T3.1 (ssRNA)
RNA: B1 RNA with G32C, U33C
B36: Ic_S2_P3E.1_K3.1_C3.1_H3.1_A3.1_[T5C]_F3.1_[T7C]_[A8C]_T3.1 (ssRNA)
RNA: B1 RNA with G32C, U33A, U35C
B37: Ic_S2_P3E.1_K3.1_C3.1_H3.1_A3.1_[T5A]_[A6C]_F3.1_[T7G]_[A8G]_T3.1 (ssRNA)
RNA: B1 RNA with G32A, U33C, C34G, U35G
B38: Ic_S2_P3E.1_K3.1_C3.1_H3.1_A3.1_[T5A]_[A6C]_F3.1_[A8G]_T3.1 (ssRNA)
RNA: B1 RNA with G32A, U33C, C34U, U35G
B39: Ic_S2_P3E.1_K3.1_C3.1_H3.1_A3.1_[T5C]_[A6T]_F3.1_[T7C]_[A8T]_T3.1 (ssRNA)
RNA: B1 RNA with G32C
B40: Ic_S2_P3E.1_K3.1_C3.1_H3.1_A3.1_[T5A]_[A6C]_F3.1_[T7A]_[A8G]_T3.1 (ssRNA)
RNA: B1 RNA with G32A, U33C, C34A, U35G
B41: Ic_S2_P3E.1_K3.1_C3.1_H3.1_A3.1_[T5C]_[A6C]_F3.1_[T7G]_[A8T]_T3.1 (ssRNA)
RNA: B1 RNA with G32C, U33C, C34G
B42: Ic_S2_P3E.1_K3.1_C3.1_H3.1_A3.1_[T5G]_[A6T]_F3.1_[A8T]_T3.1 (ssRNA)
RNA: B1 RNA with C34U
B43: Ic_S2_P3E.1_K3.1_C3.1_H3.1_A3.1_[T5C]_[A6T]_F3.1_[A8C]_T3.1 (ssRNA)
RNA: B1 RNA with G32C, C34U, U35C
B44: Ic_S2_P3E.1_K3.1_C3.1_H3.1_A3.1_[T5C]_[A6T]_F3.1_[T7A]_[A8G]_T3.1 (ssRNA)
RNA: B1 RNA with G32C, C34A, U35G
B45: Ic_S2_P3E.1_K3.1_C3.1_H3.1_A3.1_[T5C]_[A6T]_F3.1_[T7A]_[A8C]_T3.1 (ssRNA)
RNA: B1 RNA with G32C, C34A, U35C
B46: Ic_S2_P3E.1_K3.1_C3.1_H3.1_A3.1_[T5C]_[A6C]_F3.1_[T7A]_[A8T]_T3.1 (ssRNA)
RNA: B1 RNA with G32C, U33C, C34A
B47: Ic_S2_P3E.1_K3.1_C3.1_H3.1_A3.1_[T5C]_[A6C]_F3.1_[T7C]_[A8G]_T3.1 (ssRNA)
RNA: B1 RNA with G32C, U33C, U35G
B48: Ic_S2_P3E.1_K3.1_C3.1_H3.1_A3.1_[T5C]_F3.1_[T7G]_[A8C]_T3.1 (ssRNA)
RNA: B1 RNA with G32C, U33A, C34G, U35C

target: T1, PUF4 RNA-binding domain (Saccharomyces cerevisiae, UniProt P25339 537-888); assay: Mg; RNA-MaP; 20 mM Na-HEPES pH 7.4, 30 mM KOAc, 0.75 mM MgCl2, 0.1% Tween-20, 5% glycerol, 0.1 mg/mL BSA, 2 mM DTT; 25 C; 0.0125-409.6 nM protein; conditions: tags: N-His6-TEV cleaved; C-SNAP kept, Cy3B-labelled; label: tethered on chip by stalled RNA polymerase
T1 sequence: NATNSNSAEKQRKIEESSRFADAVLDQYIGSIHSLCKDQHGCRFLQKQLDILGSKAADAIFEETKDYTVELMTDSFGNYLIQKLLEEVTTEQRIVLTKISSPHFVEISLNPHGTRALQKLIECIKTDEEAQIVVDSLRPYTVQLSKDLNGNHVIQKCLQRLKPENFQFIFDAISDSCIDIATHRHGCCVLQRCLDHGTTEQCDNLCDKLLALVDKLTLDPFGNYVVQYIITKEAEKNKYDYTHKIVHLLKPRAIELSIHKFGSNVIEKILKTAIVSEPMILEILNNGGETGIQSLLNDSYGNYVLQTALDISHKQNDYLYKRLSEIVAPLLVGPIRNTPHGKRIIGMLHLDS

Binder	Kd
B1	70.3 nM
B2	191 nM
B3	13.1 nM
B4	8.69 nM
B5	3.82 nM
B6	23.5 nM
B7	107 nM
B8	23.8 nM
B9	27.7 nM
B10	11.6 nM
B11	1630 nM
B12	650 nM
B13	126 nM
B14	536 nM
B15	31.5 nM
B16	33.9 nM
B17	626 nM
B18	158 nM
B19	2.64 nM
B20	751 nM
B21	1390 nM
B22	22.5 nM
B23	174 nM
B24	7.54 nM
B25	9.88 nM
B26	1530 nM
B27	17.7 nM

Binder	Kd
B28	120 nM
B29	30.1 nM
B30	14.5 nM
B31	381 nM
B32	81.3 nM
B33	126 nM
B34	19.2 nM
B35	12.6 nM
B36	17.3 nM
B37	984 nM
B38	101 nM
B39	10.7 nM
B40	947 nM
B41	55.6 nM
B42	23.2 nM
B43	36.4 nM
B44	692 nM
B45	47 nM
B46	3.72 nM
B47	259 nM
B48	35.4 nM
UCUCUUUGUAUAUUCUCUCUU (ssRNA) [Ic_S1_P4E.1_K4.1_C4.1_H4.1_A4.1_F4.1_[A9C]_T4.1]	6.17 nM
UCUCUUUUUAUUUAUCUCUU (ssRNA) [Ib_S1_P3E.1_K3.1_C3.1_H3.1_[G2T]_A3.1_[A6T]_F3.1_T3.1]	> 2300 nM
UCUCUUUUUAUGUAUCUCUU (ssRNA) [Ib_S1_P3E.1_K3.1_C3.1_H3.1_[G2T]_A3.1_[A6G]_F3.1_T3.1]	354 nM
UCUCUUUAUACAUAUCUCUU (ssRNA) [Ib_S1_P3E.1_K3.1_C3.1_H3.1_[G2A]_A3.1_[T5C]_F3.1_T3.1]	900 nM
UCUCUUUCUAUUUAUCUCUU (ssRNA) [Ib_S1_P3E.1_K3.1_C3.1_H3.1_[G2C]_A3.1_[A6T]_F3.1_T3.1]	> 2300 nM
UCUCUUUUUAUCUAUCUCUU (ssRNA) [Ib_S1_P3E.1_K3.1_C3.1_H3.1_[G2T]_A3.1_[A6C]_F3.1_T3.1]	> 2300 nM
